Experimental data from US20220411483A1 (Chugai, published 2022).
Changes are numbered by the printed parent chain.

T1: human FcγRIIa H type extracellular domain with C-terminal His tag (human, UniProt P12318 34-217)
T1 construct: extracellular domain; also called FcgRIIaH
T1 sequence (looked up): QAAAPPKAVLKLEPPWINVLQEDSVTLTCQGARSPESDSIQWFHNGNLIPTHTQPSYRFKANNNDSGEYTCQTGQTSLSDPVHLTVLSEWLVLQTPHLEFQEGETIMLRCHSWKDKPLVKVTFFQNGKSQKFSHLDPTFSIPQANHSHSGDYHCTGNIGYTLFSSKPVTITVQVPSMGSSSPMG

T2: human FcγRIIa R type extracellular domain with C-terminal His tag (human, UniProt P12318 34-217)
T2 construct: extracellular domain; also called FcgRIIaR
T2 sequence (looked up): T1 sequence (looked up) with H134R

T3: human FcγRIIb extracellular domain with C-terminal His tag (human, UniProt P31994 43-217)
T3 construct: extracellular domain; also called FcgRIIb
T3 sequence (looked up): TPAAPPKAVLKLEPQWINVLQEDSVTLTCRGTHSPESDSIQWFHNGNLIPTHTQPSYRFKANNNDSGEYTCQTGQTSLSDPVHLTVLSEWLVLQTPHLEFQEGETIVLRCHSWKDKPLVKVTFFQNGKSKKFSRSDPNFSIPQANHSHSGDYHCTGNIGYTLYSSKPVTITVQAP

B1: IL6R-P773/IL6R-L (antibody, human IgG1, kappa)
heavy: QVQLQESGPGLVKPSETLSLTCAVSGHSISHDHAWSWVRQPPGEGLEWIGFISYSGITNYNPSLQGRVTISRDNSKNTLYLQMNSLRAEDTAVYYCARSLARTTAMDYWGEGTLVTVSSASTKGPSVFPLAPSSKSTSGGTAALGCLVKDYFPEPVTVSWNSGALTSGVHTFPAVLQSSGLYSLSSVVTVPSSSLGTQTYICNVNHKPSNTKVDKKVEPKSCDKTHTCPPCPAPELLGGDSVFLFPPKPKDTLMISRTPEVTCVVVDVAEEDGEVKFNWYVDGVEVHNAKTKPREEQYNSTYRVVSVLTVLHQDWLNGKEYKCAVSNKALPAPIEKTISKAKGQPREPQVYTLPPSRDELTKNQVSLTCLVKGFYPSDIAVEWESNGQPENNYKTTPPVLDSDGSFFLYSKLTVDKSRWQQGNVFSCSVMHEALHNHYTQKSLSLSP
light: not shown
B2: IL6R-P774/IL6R-L (antibody, human IgG1, kappa)
heavy: B1 heavy with A324E
light: not shown
B3: IL6R-P775/IL6R-L (antibody, human IgG1, kappa)
heavy: B1 heavy with A269S, E270H
light: not shown
B4: IL6R-P776/IL6R-L (antibody, human IgG1, kappa)
heavy: B1 heavy with A269S, E270H, A324E
light: not shown
B5: IL6R-P777/IL6R-L (antibody, human IgG1, kappa)
heavy: B1 heavy with E235D, V266I
light: not shown
B6: IL6R-P778/IL6R-L (antibody, human IgG1, kappa)
heavy: B1 heavy with E235D, V266I, A324E
light: not shown
B7: IL6R-P779/IL6R-L (antibody, human IgG1, kappa)
heavy: B1 heavy with V266I
light: not shown
B8: IL6R-P780/IL6R-L (antibody, human IgG1, kappa)
heavy: B1 heavy with V266I, A324E
light: not shown
B9: IL6R-P781/IL6R-L (antibody, human IgG1, kappa)
heavy: B1 heavy with A269S, E270H, G273P, S300A, A324K, A329G, A332S, P333S
light: not shown
B10: IL6R-P782/IL6R-L (antibody, human IgG1, kappa)
heavy: B1 heavy with E235D, A269S, E270H, G273P, A324K, A329G, A332S, P333S
light: not shown

target: T1, human FcγRIIa H type extracellular …; experiment: SPR, KD of IL6R-G1d/IL6R-L divided by KD of variant

First: B1
Second: B2
The “Relative FcgRIIaH-binding Activity” value of the first is lower: 0.006 for the first, 0.008 for the second.

Going from B3 to B4, the “Relative FcgRIIaH-binding Activity” value rises from 0.005 to 0.006.

Going from B5 to B6, the “Relative FcgRIIaH-binding Activity” value rises from 0.008 to 0.01.

First: B7
Second: B8
The “Relative FcgRIIaH-binding Activity” value of the first is higher: 0.009 for the first, 0.008 for the second.

Going from B9 to B10, the “Relative FcgRIIaH-binding Activity” value rises from 0.003 to 0.005.

target: T2, human FcγRIIa R type extracellular …; experiment: as above

Compared with B1, B2 is higher in “Relative FcgRIIaR-binding Activity” value: 0.41 for the first, 0.55 for the second.

Going from B3 to B4, the “Relative FcgRIIaR-binding Activity” value rises from 0.2 to 0.28.

Compared with B5, B6 is higher in “Relative FcgRIIaR-binding Activity” value: 0.58 for the first, 0.85 for the second.

Compared with B7, B8 is higher in “Relative FcgRIIaR-binding Activity” value: 0.5 for the first, 0.65 for the second.

Going from B9 to B10, the “Relative FcgRIIaR-binding Activity” value falls from 0.1 to 0.03.

target: T4, human FcγRIa extracellular domain with C-terminal His tag (human, UniProt P12314 16-292); experiment: as above
T4 construct: Whole entry named; also called FcgRIa
T4 sequence (P12314 16-292): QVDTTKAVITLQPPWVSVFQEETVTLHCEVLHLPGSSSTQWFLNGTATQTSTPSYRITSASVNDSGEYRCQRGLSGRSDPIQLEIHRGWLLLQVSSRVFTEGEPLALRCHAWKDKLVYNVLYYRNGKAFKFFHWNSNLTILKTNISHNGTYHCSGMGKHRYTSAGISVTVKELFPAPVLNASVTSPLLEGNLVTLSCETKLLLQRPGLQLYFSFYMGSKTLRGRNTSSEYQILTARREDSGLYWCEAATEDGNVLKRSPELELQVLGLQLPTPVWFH

First: B1
Second: B2
The “Relative FcgRIa-binding Activity” value of the first is lower: 0.152 for the first, 0.291 for the second.

Compared with B3, B4 is higher in “Relative FcgRIa-binding Activity” value: 0.037 for the first, 0.062 for the second.

First: B5
Second: B6
The “Relative FcgRIa-binding Activity” value of the first is lower: 0.2 for the first, 0.333 for the second.

First: B7
Second: B8
The “Relative FcgRIa-binding Activity” value of the first is lower: 0.094 for the first, 0.152 for the second.

Going from B9 to B10, the “Relative FcgRIa-binding Activity” value falls from 0.019 to 0.011.

target: T3, human FcγRIIb extracellular domain with …; experiment: as above

Compared with B1, B2 is higher in “Relative FcgRIIb-binding Activity” value: 15 for the first, 23.9 for the second.

Compared with B3, B4 is higher in “Relative FcgRIIb-binding Activity” value: 5.3 for the first, 7.5 for the second.

Going from B5 to B6, the “Relative FcgRIIb-binding Activity” value rises from 40.4 to 84.

First: B7
Second: B8
The “Relative FcgRIIb-binding Activity” value of the first is lower: 42 for the first, 61.8 for the second.

Compared with B9, B10 is higher in “Relative FcgRIIb-binding Activity” value: 0.2 for the first, 0.6 for the second.

target: T5, human FcγRIIIa V type extracellular domain with C-terminal His tag (human, UniProt P08637 17-208); experiment: as above
T5 construct: extracellular domain; also called FcgRIIIaV
T5 sequence (P08637 17-208 F176V): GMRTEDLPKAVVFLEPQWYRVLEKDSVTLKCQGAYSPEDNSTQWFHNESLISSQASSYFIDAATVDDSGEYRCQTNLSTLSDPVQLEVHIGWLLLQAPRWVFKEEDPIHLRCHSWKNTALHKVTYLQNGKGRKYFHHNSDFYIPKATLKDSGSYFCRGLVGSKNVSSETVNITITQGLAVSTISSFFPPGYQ

Compared with B1, B2 is higher in “Relative FcgRIIIaV-binding Activity” value: 0.009 for the first, 0.012 for the second.

Compared with B3, B4 is higher in “Relative FcgRIIIaV-binding Activity” value: 0.007 for the first, 0.01 for the second.

Compared with B5, B6 is higher in “Relative FcgRIIIaV-binding Activity” value: 0.007 for the first, 0.009 for the second.

First: B7
Second: B8
The “Relative FcgRIIIaV-binding Activity” value of the first is higher: 0.011 for the first, 0.008 for the second.

Compared with B9, B10 is lower in “Relative FcgRIIIaV-binding Activity” value: 0.007 for the first, 0.006 for the second.

target: T2, human FcγRIIa R type extracellular …; experiment: SPR, antibody captured, FcgR analyte

B1 and B2 are within 1.5-fold of each other in Kd: 2700 nM for the first, 2000 nM for the second.

B3 and B4 are within 1.5-fold of each other in Kd: 5400 nM for the first, 4000 nM for the second.

B5 and B6 are within 1.5-fold of each other in Kd: 1900 nM for the first, 1300 nM for the second.

B7 and B8 are within 1.5-fold of each other in Kd: 2200 nM for the first, 1700 nM for the second.

Compared with B9, B10 is 3.4-fold higher in Kd: 11000 nM for the first, 37000 nM for the second. The first binds more tightly here.

target: T4, human FcγRIa extracellular domain with …; experiment: SPR, antibody captured, FcgR analyte

Compared with B1, B2 is 1.9-fold lower in Kd: 2.1 nM for the first, 1.1 nM for the second.

Compared with B3, B4 is 1.7-fold lower in Kd: 8.6 nM for the first, 5.2 nM for the second.

First: B5
Second: B6
The Kd of the first is 1.7-fold higher: 1.6 nM for the first, 0.96 nM for the second.

Going from B7 to B8, the Kd falls from 3.4 nM to 2.1 nM (1.6-fold). The second binds more tightly here.

Going from B9 to B10, the Kd rises from 17 nM to 30 nM (1.8-fold).

target: T3, human FcγRIIb extracellular domain with …; experiment: SPR, antibody captured, FcgR analyte

Going from B1 to B2, the Kd falls from 140 nM to 88 nM (1.6-fold).

B3 and B4 are within 1.5-fold of each other in Kd: 400 nM for the first, 280 nM for the second.

Compared with B5, B6 is 2.1-fold lower in Kd: 52 nM for the first, 25 nM for the second.

B7 and B8 are within 1.5-fold of each other in Kd: 50 nM for the first, 34 nM for the second.

Going from B9 to B10, the Kd falls from 9000 nM to 3600 nM (2.5-fold). The second binds more tightly here.
